We go through 3 molecules from US20180371087A1 (published 2018).

Assay [1] concerns the target T1, human LAG-3 (Lymphocyte Activation Gene-3), native or transduced, on the cell surface (UniProt P18627 23-525).
T1 chain: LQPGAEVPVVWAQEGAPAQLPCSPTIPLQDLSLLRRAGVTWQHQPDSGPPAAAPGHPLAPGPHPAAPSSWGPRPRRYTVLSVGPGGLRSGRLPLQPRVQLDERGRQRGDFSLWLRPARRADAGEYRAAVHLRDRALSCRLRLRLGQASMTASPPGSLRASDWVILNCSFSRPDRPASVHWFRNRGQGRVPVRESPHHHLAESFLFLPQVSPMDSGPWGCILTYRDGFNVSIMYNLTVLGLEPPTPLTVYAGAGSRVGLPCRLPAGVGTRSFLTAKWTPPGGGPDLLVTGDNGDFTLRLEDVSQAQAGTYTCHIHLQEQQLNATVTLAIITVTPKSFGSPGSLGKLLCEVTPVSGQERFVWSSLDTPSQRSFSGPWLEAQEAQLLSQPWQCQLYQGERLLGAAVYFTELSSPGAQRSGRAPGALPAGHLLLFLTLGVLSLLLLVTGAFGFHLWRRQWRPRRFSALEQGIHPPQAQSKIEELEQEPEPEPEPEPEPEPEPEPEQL
The assay can be described thus: FACS binding; activated human CD4+ T cells.

For the next assay, the target named is D1D4 construct. Description: SPR (Biacore).

B1: LAG3.7-G4P (antibody, V domains shown)
VH: QVQLQQWGAGLLKPSETLSLTCAVYGGSFSDYYWNWIRQPPGKGLEWIGEINHGGGTNSNPSLKSRVTLSLDTSKNQFSLKLRSVTAADTAVYYCAFGYSDYEYNWFDPWGQGTLVTVSS
VL: EIVLTQSPATLSLSPGERATLSCRASQSISSYLAWYQQKPGQAPRLLIYDASNRATGIPARFSGSGSGTDFTLTISSLEPEDFAVYYCQQRSNWPLTFGQGTNLEIK
In assay [1], B1 yielded a 50% effective concentration (EC50) of 330 pM.

B2: LAG3.8 antibody variant of LAG3.1 (antibody, V domains shown)
VH: QVQLQQWGAGLLKPSETLSLTCAVYGGSFSDYYWNWIRQPPGKGLEWIGEINHIGNTNSNPSLKSRVTLSLDTSKNQFSLKLRSVTAADTAVYYCAFGYSDYEYNWFDPWGQGTLVTVSS
VL: EIVLTQSPATLSLSPGERATLSCRASQSISSYLAWYQQKPGQAPRLLIYDASNRATGIPARFSGSGSGTDFTLTISSLEPEDFAVYYCQQRSNWPLTFGQGTNLEIKR
Molecule B2 yielded an EC50 in assay [1] of 190 pM.

B3: LAG3.8 (antibody, V domains shown)
VH: QVQLQQWGAGLLKPSETLSLTCAVYGGSFSDYYWNWIRQPPGKGLEWIGEINHIGNTNSNPSLKSRVTLSLDTSKNQFSLKLRSVTAADTAVYYCAFGYSDYEYNWFDPWGQGTLVTVSS
VL: EIVLTQSPATLSLSPGERATLSCRASQSISSYLAWYQQKPGQAPRLLIYDASNRATGIPARFSGSGSGTDFTLTISSLEPEDFAVYYCQQRSNWPLTFGQGTNLEIKR
Take B3: in the assay with D1D4 construct, the Kd is 300 pM.

What is called EC50 is the concentration giving half of the maximal effect. Lower therefore signals a more potent agent. In general, Kd refers to the free concentration of one partner at which half of the binding sites on the other are occupied at equilibrium, for simple one-to-one binding.
